Where two headings read alike, the source gives them in different places. Bridges are numbered along the chain shown (N, C = ends). [ ]: non-standard residue; d: D form.
Assays:
[1] = target: T1, (7× His)-PSD-95-PDZ2 wild type (UniProt P78352 160-246); assay: FP saturation
T1 construct: domain: PDZ2; recombinant from E. coli; also called PSD-95-PDZ2 WT; not shown: 7x His tag

PSD-95-PDZ2 V229A = target: T2, PSD-95-PDZ2 V229A (UniProt P78352 160-246); assay: FP saturation
T2 construct: domain: PDZ2; not shown: 7x His tag

PSD-95-PDZ2 K165A = target: T3, PSD-95-PDZ2 K165A (UniProt P78352 160-246); assay: FP saturation
T3 construct: domain: PDZ2; also called K165 mutation; not shown: 7x His tag

[2] = target: T1, (7× His)-PSD-95-PDZ2 wild type; assay: ITC, 25 °C
Description: Isothermal titration calorimetry (ITC). […] Proteins were dialyzed against this buffer using Amicon® Ultra-15 centrifugal filter units, with a MWCO 3000 Da.
This assay was performed on an ITC200. The instrument differential power (DP) was set to 10 and the syringe rotating speed to 600 RPM. The assay setup consisted of introducing the protein inside the cell and the peptide (titrant) on the syringe. Calorimetry was performed at 25° C. Each analysis was performed in triplicates. Furthermore, several runs of peptide into buffer were performed in order to remove injection residual heat. Runs were analyzed with Origin 7.0 software (OriginLab).

[3] = target: T1, (7× His)-PSD-95-PDZ2 wild type; assay: FP competition
Description: (§1) Fluorescence polarization (FP). FP assays were performed in a 384-well plate format. Fluorescence polarization was measured using a Safire 2 plate reader. The instrument Z-factor was optimized for each assay. The G-factor was calibrated to an initial milli polarization value of 20. […] Every measurement was performed in NaPI 50 mM, 50 mM NaCl and 1% BSA at pH 7.2, 25° C. […] The curves were done in triplicates. Then, the polarization was fitted into a one-site binding model using Prism software 8.0 (GraphPad), from which the Kd can be measured. […] The mili polarization (mP) values were plotted as a function of peptide concentration and fitted to a sigmoidal dose-response curve using Prism software 8.0 (GraphPad). The Kᵢ values were calculated according to Nikolovska-Coleska Z. et al.⁴⁰⁻⁴¹

[4] = target: T1, (7× His)-PSD-95-PDZ2 wild type; assay: FP competition; remark: listed apart in the source
Description: as §1

[5] = target: T1, (7× His)-PSD-95-PDZ2 wild type; assay: FP competition; remark: listed apart in the source
Description: as §1

[6] = target: T1, (7× His)-PSD-95-PDZ2 wild type; assay: FP competition; remark: listed apart in the source
Description: as §1

[7] = target: T1, (7× His)-PSD-95-PDZ2 wild type; assay: FP competition; remark: listed apart in the source
Description: Fluorescence polarization (FP). FP assays were performed in a 384-well plate format. Fluorescence polarization was measured using a Safire 2 plate reader. The instrument Z-factor was optimized for each assay. The G-factor was calibrated to an initial milli polarization value of 20. […] Every measurement was performed in NaPI 50 mM, 50 mM NaCl and 1% BSA at pH 7.2, 25° C. […] The curves were done in triplicates. […] The mili polarization (mP) values were plotted as a function of peptide concentration and fitted to a sigmoidal dose-response curve using Prism software 8.0 (GraphPad). The Kᵢ values were calculated according to Nikolovska-Coleska Z. et al.⁴⁰⁻⁴¹

[8] = target: T1, (7× His)-PSD-95-PDZ2 wild type; assay: FP competition; remark: listed apart in the source
Description: Fluorescence polarization (FP). FP assays were performed in a 384-well plate format. Fluorescence polarization was measured using a Safire 2 plate reader. The instrument Z-factor was optimized for each assay. The G-factor was calibrated to an initial milli polarization value of 20. […] Every measurement was performed in NaPI 50 mM, 50 mM NaCl and 1% BSA at pH 7.2, 25° C. […] The curves were done in triplicates. […] The mili polarization (mP) values were plotted as a function of peptide concentration and fitted to a sigmoidal dose-response curve using Prism software 8.0 (GraphPad).
Data was collected in triplicates and is presented as mean of Kᵢ values±SEM

[9] = target: T1, (7× His)-PSD-95-PDZ2 wild type; assay: FP competition; remark: listed apart in the source
Description: as §1
Data was collected in triplicates and is presented as mean of Kᵢ values±SEM.

T1 sequence (P78352 160-246): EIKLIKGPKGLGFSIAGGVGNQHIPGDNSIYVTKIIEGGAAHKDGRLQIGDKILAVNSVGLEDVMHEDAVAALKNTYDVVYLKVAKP
T3 sequence (P78352 160-246, stated change not applied): as the sequence (P78352 160-246) above
T2 sequence (P78352 160-246, stated change not applied): as the sequence (P78352 160-246) above

## cyclo(C(TAMRA maleimide)THLETTFTGDGTPKTIRVTQ[dP]G) (also called cyclic nNOS TAMRA probe) [cyclic nNOS β-hairpin TAMRA probe, cyclo-(CTHLETTFTGDGTPKTIRVTQpG) labelled with TAMRA]
[1]
  Kd: 1000 nM
PSD-95-PDZ2 V229A
  fold loss in affinity vs PDZ2 WT: 6 fold
PSD-95-PDZ2 K165A
  fold loss in affinity vs PDZ2 WT: 4 fold

B1: cyclic nNOS β-hairpin peptide (WT), Cyclo-(THLETTFTGDGTPKTIRVTQpG(Qα)) (peptide)
peptide: cyclo(THLETTFTGDGTPKTIRVTQ[dP]GQ)
SMILES: CC[C@H](C)[C@@H]1NC(=O)[C@H]([C@@H](C)O)NC(=O)[C@H](CCCCN)NC(=O)[C@@H]2CCCN2C(=O)[C@H]([C@@H](C)O)NC(=O)CNC(=O)[C@H](CC(=O)O)NC(=O)CNC(=O)[C@H]([C@@H](C)O)NC(=O)[C@H](Cc2ccccc2)NC(=O)[C@H]([C@@H](C)O)NC(=O)[C@H]([C@@H](C)O)NC(=O)[C@H](CCC(=O)O)NC(=O)[C@H](CC(C)C)NC(=O)[C@H](Cc2c[nH]cn2)NC(=O)[C@H]([C@@H](C)O)NC(=O)[C@H](CCC(N)=O)NC(=O)CNC(=O)[C@H]2CCCN2C(=O)[C@H](CCC(N)=O)NC(=O)[C@H]([C@@H](C)O)NC(=O)[C@H](C(C)C)NC(=O)[C@H](CCCNC(=N)N)NC1=O
notes: also called Cyclic WT; Wild type mimic
[2]
  -ΔS*T: 350 cal/mol
  Kd: 2150 nM
  ΔH: -7740 cal/mol

## THLETTFTGDGTPKTIRVTQ[dP]GD-NH2 (lactam N-23) [Cyclo-(105THLETTFTGDGTPKTIRVTQ124pG(Dγ)), Asp side-chain lactam]
[3]
  Ki: 4.29 µM

## THLETTFTGDGTPKTIRVTQ[dP]GE-NH2 (lactam N-23) [Cyclo-(105THLETTFTGDGTPKTIRVTQ124pG(Eγ)), Glu side-chain lactam]
[3]
  Ki: 3.6 µM

B2: cyclic nNOS β-hairpin peptide G115P T116E (peptide)
peptide: cyclo(THLETTFTGDPEPKTIRVTQ[dP]GQ)
SMILES: CC[C@H](C)[C@@H]1NC(=O)[C@H]([C@@H](C)O)NC(=O)[C@H](CCCCN)NC(=O)[C@@H]2CCCN2C(=O)[C@H](CCC(=O)O)NC(=O)[C@@H]2CCCN2C(=O)[C@H](CC(=O)O)NC(=O)CNC(=O)[C@H]([C@@H](C)O)NC(=O)[C@H](Cc2ccccc2)NC(=O)[C@H]([C@@H](C)O)NC(=O)[C@H]([C@@H](C)O)NC(=O)[C@H](CCC(=O)O)NC(=O)[C@H](CC(C)C)NC(=O)[C@H](Cc2c[nH]cn2)NC(=O)[C@H]([C@@H](C)O)NC(=O)[C@H](CCC(N)=O)NC(=O)CNC(=O)[C@H]2CCCN2C(=O)[C@H](CCC(N)=O)NC(=O)[C@H]([C@@H](C)O)NC(=O)[C@H](C(C)C)NC(=O)[C@H](CCCNC(=N)N)NC1=O
[4]
  Ki: 22.5 µM

B3: cyclic nNOS β-hairpin peptide T112W G115P (peptide)
peptide: cyclo(THLETTFWGDPTPKTIRVTQ[dP]GQ)
SMILES: CC[C@H](C)[C@@H]1NC(=O)[C@H]([C@@H](C)O)NC(=O)[C@H](CCCCN)NC(=O)[C@@H]2CCCN2C(=O)[C@H]([C@@H](C)O)NC(=O)[C@@H]2CCCN2C(=O)[C@H](CC(=O)O)NC(=O)CNC(=O)[C@H](Cc2c[nH]c3ccccc23)NC(=O)[C@H](Cc2ccccc2)NC(=O)[C@H]([C@@H](C)O)NC(=O)[C@H]([C@@H](C)O)NC(=O)[C@H](CCC(=O)O)NC(=O)[C@H](CC(C)C)NC(=O)[C@H](Cc2c[nH]cn2)NC(=O)[C@H]([C@@H](C)O)NC(=O)[C@H](CCC(N)=O)NC(=O)CNC(=O)[C@H]2CCCN2C(=O)[C@H](CCC(N)=O)NC(=O)[C@H]([C@@H](C)O)NC(=O)[C@H](C(C)C)NC(=O)[C@H](CCCNC(=N)N)NC1=O
[4]
  Ki: 0.95 µM

## XHLETTFTGDGTPKTIRVTQPGQ (cyclic; D-Pro; N-methyl Thr 105) [cyclic nNOS β-hairpin peptide N-Me-T105]
[5]
  fold decrease in affinity: 5 fold
[6]
  Ki: 4800 nM

## XHLETTFTGDGTPKTIRVTQPGC (cyclic by thioether (N-terminal acetyl to Cys); D-Pro, also called thioether bridged analogue) [Cyclo-(Ac105…124pGC), Thioether]
[3]
  Ki: 4.8 µM

## THLETTFTGDGTPXTIRVTQPGQ (cyclic; D-Pro; N-methyl Lys 118) [cyclic nNOS β-hairpin peptide N-Me-K118]
[5]
  fold improved affinity: 2 fold
[6]
  Ki: 480 nM

## THLETTFTGDGTPKTIRVXQPGQ (cyclic; D-Pro; N-methyl Thr 123) [cyclic nNOS β-hairpin peptide N-Me-T123]
[5]
  fold improved affinity: 2 fold
[6]
  Ki: 580 nM

B4: cyclic nNOS β-hairpin peptide ΔT112 (peptide)
peptide: cyclo(THLETTFGDGTPKTIRVTQ[dP]GQ)
SMILES: CC[C@H](C)[C@@H]1NC(=O)[C@H]([C@@H](C)O)NC(=O)[C@H](CCCCN)NC(=O)[C@@H]2CCCN2C(=O)[C@H]([C@@H](C)O)NC(=O)CNC(=O)[C@H](CC(=O)O)NC(=O)CNC(=O)[C@H](Cc2ccccc2)NC(=O)[C@H]([C@@H](C)O)NC(=O)[C@H]([C@@H](C)O)NC(=O)[C@H](CCC(=O)O)NC(=O)[C@H](CC(C)C)NC(=O)[C@H](Cc2c[nH]cn2)NC(=O)[C@H]([C@@H](C)O)NC(=O)[C@H](CCC(N)=O)NC(=O)CNC(=O)[C@H]2CCCN2C(=O)[C@H](CCC(N)=O)NC(=O)[C@H]([C@@H](C)O)NC(=O)[C@H](C(C)C)NC(=O)[C@H](CCCNC(=N)N)NC1=O
[7]
  Ki: 690 nM

B5: cyclic nNOS β-hairpin peptide ΔD114 (peptide)
peptide: cyclo(THLETTFTGGTPKTIRVTQ[dP]GQ)
SMILES: CC[C@H](C)[C@@H]1NC(=O)[C@H]([C@@H](C)O)NC(=O)[C@H](CCCCN)NC(=O)[C@@H]2CCCN2C(=O)[C@H]([C@@H](C)O)NC(=O)CNC(=O)CNC(=O)[C@H]([C@@H](C)O)NC(=O)[C@H](Cc2ccccc2)NC(=O)[C@H]([C@@H](C)O)NC(=O)[C@H]([C@@H](C)O)NC(=O)[C@H](CCC(=O)O)NC(=O)[C@H](CC(C)C)NC(=O)[C@H](Cc2c[nH]cn2)NC(=O)[C@H]([C@@H](C)O)NC(=O)[C@H](CCC(N)=O)NC(=O)CNC(=O)[C@H]2CCCN2C(=O)[C@H](CCC(N)=O)NC(=O)[C@H]([C@@H](C)O)NC(=O)[C@H](C(C)C)NC(=O)[C@H](CCCNC(=N)N)NC1=O
[7]
  Ki: 700 nM

B6: cyclic nNOS β-hairpin peptide ΔT116 (peptide)
peptide: cyclo(THLETTFTGDGPKTIRVTQ[dP]GQ)
SMILES: CC[C@H](C)[C@@H]1NC(=O)[C@H]([C@@H](C)O)NC(=O)[C@H](CCCCN)NC(=O)[C@@H]2CCCN2C(=O)CNC(=O)[C@H](CC(=O)O)NC(=O)CNC(=O)[C@H]([C@@H](C)O)NC(=O)[C@H](Cc2ccccc2)NC(=O)[C@H]([C@@H](C)O)NC(=O)[C@H]([C@@H](C)O)NC(=O)[C@H](CCC(=O)O)NC(=O)[C@H](CC(C)C)NC(=O)[C@H](Cc2c[nH]cn2)NC(=O)[C@H]([C@@H](C)O)NC(=O)[C@H](CCC(N)=O)NC(=O)CNC(=O)[C@H]2CCCN2C(=O)[C@H](CCC(N)=O)NC(=O)[C@H]([C@@H](C)O)NC(=O)[C@H](C(C)C)NC(=O)[C@H](CCCNC(=N)N)NC1=O
[7]
  Ki: 1430 nM

## THLETXFTGDGTPKTIRVTQPGQ (cyclic; D-Pro; allo-Thr at 110) [cyclic nNOS β-hairpin peptide AlloT110]
[7]
  Ki: 2290 nM

## XHLETTFTGDGTPKTIRVTQPGQ (cyclic; D-Pro; allo-Thr at 105) [cyclic nNOS β-hairpin peptide AlloT105]
[7]
  Ki: 2650 nM

## THLETTFTGDGTPKXIRVTQPGQ (cyclic; D-Pro; allo-Thr at 119) [cyclic nNOS β-hairpin peptide AlloT119]
[7]
  Ki: 8990 nM

## THLETTFTGDXTPKTIRVTQPGQ (cyclic; D-Pro; N-methyl Gly 115) [cyclic nNOS β-hairpin peptide N-Me-G115]
[6]
  Ki: 820 nM

## THLETTFTGDGXPKTIRVTQPGQ (cyclic; D-Pro; N-methyl Thr 116) [cyclic nNOS β-hairpin peptide N-Me-T116]
[6]
  Ki: 930 nM

## THLETTFTGDGTPKXIRVTQPGQ (cyclic; D-Pro; N-methyl Thr 119) [cyclic nNOS β-hairpin peptide N-Me-T119]
[6]
  Ki: 4880 nM

## THLETTFTGDGTPKTXRVTQPGQ (cyclic; D-Pro; N-methyl Ile 120) [cyclic nNOS β-hairpin peptide N-Me-I120]
[6]
  Ki: 1120 nM

## THLETTFTGDGTPKTIXVTQPGQ (cyclic; D-Pro; N-methyl Arg 121) [cyclic nNOS β-hairpin peptide N-Me-R121]
[6]
  Ki: 990 nM

## THLETTFTGDGTPKTIRXTQPGQ (cyclic; D-Pro; N-methyl Val 122) [cyclic nNOS β-hairpin peptide N-Me-V122]
[6]
  Ki: 6170 nM

## THLETTFTGDGTPKTIRVTXPGQ (cyclic; D-Pro; N-methyl Gln 124) [cyclic nNOS β-hairpin peptide N-Me-Q124]
[6]
  Ki: 2200 nM

## XHLETTFTGDGTPKTIRVTQPGQ (cyclic; D-Pro; phospho-Thr 105) [cyclic nNOS β-hairpin peptide pT105]
[8]
  Ki: 2930 nM

## THLETTFXGDGTPKTIRVTQPGQ (cyclic; D-Pro; phospho-Thr 112) [cyclic nNOS β-hairpin peptide pT112]
[8]
  Ki: 2680 nM

## THLETTFTGDGXPKTIRVTQPGQ (cyclic; D-Pro; phospho-Thr 116) [cyclic nNOS β-hairpin peptide pT116]
[8]
  Ki: 210 nM

## THLETTFTGDGTPKTIRVXQPGQ (cyclic; D-Pro; phospho-Thr 123) [cyclic nNOS β-hairpin peptide pT123]
[8]
  Ki: 1150 nM

## TXLETTFTGDGTPKTIRVTQPGQ (cyclic; D-Pro; His(3-Me) at 106) [cyclic nNOS β-hairpin peptide His(3-Me)]
[9]
  Ki: 400 nM

## TXLETTFTGDGTPKTIRVTQPGQ (cyclic; D-Pro; His(1-Me) at 106) [cyclic nNOS β-hairpin peptide His(1-Me)]
[9]
  Ki: 2900 nM

## cyclo(CTHLETTFTGDGTPKTIRVTQ[dP]G) (also called NCL peptide) [Cyclo-(C105THLETTFTGDGTPKTIRVTQ124pG), NCL]
[3]
  Ki: 1.01 µM

— US20230220021A1 (UNIVERSITY OF COPENHAGEN, published 2023)
